The results in this text go back to US20190316150A1.

What all share (experiment): cell-based or functional assay
In assay [1] the target is T1, NLS-GFP-OsJAZ^33 (SV40; Oryza sativa).
T1 sequence: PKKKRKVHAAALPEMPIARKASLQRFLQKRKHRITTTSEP

For assay [2], the target named is T2, GFP-OsJAZ^23 (Oryza sativa).
T2 sequence: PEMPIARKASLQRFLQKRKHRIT

The target in assay [3] is OsJAZ^33-p53 (Oryza sativa; human) (UniProt P04637).
For assay [4], the target named is T3, GFP-AtJAZ^FL (Arabidopsis thaliana) (UniProt Q9LMA8).
T3 sequence: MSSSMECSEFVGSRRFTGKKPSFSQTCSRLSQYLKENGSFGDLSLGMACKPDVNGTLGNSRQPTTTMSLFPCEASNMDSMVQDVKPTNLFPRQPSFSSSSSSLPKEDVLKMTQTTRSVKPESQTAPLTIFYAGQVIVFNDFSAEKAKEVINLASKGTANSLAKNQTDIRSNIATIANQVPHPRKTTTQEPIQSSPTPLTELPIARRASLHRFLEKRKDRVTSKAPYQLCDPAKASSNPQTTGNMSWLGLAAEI

B1: OsTIR1^F-box-OsCOI1B^LRR (receptor)
chain: MYPYDVPDYATYFPEEVVEHIFSFLPAQRDRNTVSLVCKVWYEIERLSRKHVTVPFCYAASPAHLLARFPRLESLAVKGKPRAAMYGLIPEDWGAYARPWVAELAAPLECLKALHLRRMVVTDDDLAALVRARGHMLQELKLDKCSGFSTDALRLVARSCRSLRTLFLEECSIADNGTEWLHDLAVNNPVLETLNFHMTELTVVPADLELLAKKCKSLISLKISDCDFSDLIGFFRMAASLQEFAGGAFIEQGELTKYGNVKFPSRLCSLGLTYMGTNEMPIIFPFSALLKKLDLQYTFLTTEDHCQLIAKCPNLLVLAVRNVIGDRGLGVVADTCKKLQRLRVERGDDDPGLQEEQGGVSQVGLTTVAVGCRELEYIAAYVSDITNGALESIGTFCKNLCDFRLVLLDREERITDLPLDNGVRALLRGCTKLRRFALYLRPGGLSDTGLGYIGQYSGIIQYMLLGNVGETDDGLIRFALGCENLRKLELRSCCFSEQALARAIRSMPSLRYVWVQGYKASKTGHDLMLMARPFWNIEFTPPSSENANRMREDGEPCVDSQAQILAYYSLAGKRSDCPRSVVPLYPA
Consider B1, for which, in assay [1], the coronatine-induced GFP degradation, flow cytometry, HEK-293T, pJAZ version 7 was > 95%; the coronatine-induced degradation, flow cytometry, several cell types carrying pJAZ and pRAIDRS lay within 90 to 99%. Further, in assay [2], the coronatine-dependent GFP degradation, flow cytometry, HEK-293T, pJAZ version 6-Os23 was determined as 90%. The molecule further registered a coronatine-dependent degradation, western blot quantification, H9 hESCs, 50 µM coronatine 1 day in assay [3] of 90%. For the same molecule, the coronatine-induced GFP degradation, flow cytometry, HEK-293T, pJAZ version 6-AtFL in assay [4] was 95%.
